The series concerns the target synthetic Tat (72 amino acids) carrying an N-terminal biotin label and an acetyl group at position 50.

The values that follow come from patent US20050287597.

B1: FLAG-tagged human SIRT1 (C-terminal FLAG tag) (protein)
chain: MADEAALALQPGGSPSAAGADREAASSPAGEPLRKRPRRDGPGLERSPGEPGGAAPEREVPAAARGCPGAAAAALWREAEAEAAAAGGEQEAQATAAAGEGDNGPGLQGPSREPPLADNLYDEDDDDEGEEEEEAAAAAIGYRDNLLFGDEIITNGFHSCESDEEDRASHASSSDWTPRPRIGPYTFVQQHLMIGTDPRTILKDLLPETIPPPELDDMTLWQIVINILSEPPKRKKRKDINTIEDAVKLLQECKKIIVLTGAGVSVSCGIPDFRSRDGIYARLAVDFPDLPDPQAMFDIEYFRKDPRPFFKFAKEIYPGQFQPSLCHKFIALSDKEGKLLRNYTQNIDTLEQVAGIQRIIQCHGSFATASCLICKYKVDCEAVRGDIFNQVVPRCPRCPADEPLAIMKPEIVFFGENLPEQFHRAMKYDKDEVDLLIVIGSSLKVRPVALIPSSIPHEVPQILINREPLPHLHFDVELLGDCDVIINELCHRLGGEYAKLCCNPVKLSEITEKPPRTQKELAYLSELPPTPLHVSEDSSSPERTSPPDSSVIVTLLDQAAKSNDDLDVSESKGCMEEKPQEVQTSRNVESIAEQMENPDLKNVGSSTGEKNERTSVAGTVRKCWPNRVAKEQISRRLDGNQYLFLPPNRYIFHGAEVYSDSEDDVLSSSSCGSNSDSGTCQSPSLEEPMEDESEIEEFYNGLEDEPDVPERAGGAGFGTDGDDQEAINEAISVKQEVTDMNYPSNKS
For the protein B1, the “in vitro Tat deacetylation (western blot with antibodies specific for acetylated lysine 50 in Tat)” value (shortened to “in vitro Tat deacetylation”) was “resulted in deacetylation of Tat lysine 50”.

B2: FLAG-tagged human SIRT2 (C-terminal FLAG tag) (protein)
chain: MAEPDPSHPLETQAGKVQEAQDSDSDSEGGAAGGEADMDFLRNLFSQTLSLGSQKERLLDELTLEGVARYMQSERCRRVICLVGAGISTSAGIPDFRSPSTGLYDNLEKYHLPYPEAIFEISYFKKHPEPFFALAKELYPGQFKPTICHYFMRLLKDKGLLLRCYTQNIDTLERIAGLEQEDLVEAHGTFYTSHCVSASCRHEYPLSWMKEKIFSEVTPKCEDCQSLVKPDIVFFGESLPARFFSCMQSDFLKVDLLLVMGTSLQVQPFASLISKAPLSTPRLLINKEKAGQSDPFLGMIMGLGGGMDFDSKKAYRDVAWLGECDQGCLALAELLGWKKELEDLVRREHASIDAQSGAGVPNPSTSASPKKSPPPAKDEARTTEREKPQ
For the protein B2, the “in vitro Tat deacetylation” value is on record as “resulted in deacetylation of Tat lysine 50”.

B3: FLAG-tagged human SIRT3 (C-terminal FLAG tag) (protein)
chain: MAFWGWRAAAALRLWGRVVERVEAGGGVGPFQACGCRLVLGGRDDVSAGLRGSHGARGEPLDPARPLQRPPRPEVPRAFRRQPRAAAPSFFFSSIKGGRRSISFSVGASSVVGSGGSSDKGKLSLQDVAELIRARACQRVVVMVGAGISTPSGIPDFRSPGSGLYSNLQQYDLPYPEAIFELPFFFHNPKPFFTLAKELYPGNYKPNVTHYFLRLLHDKGLLLRLYTQNIDGLERVSGIPASKLVEAHGTFASATCTVCQRPFPGEDIRADVMADRVPRCPVCTGVVKPDIVFFGEPLPQRFLLHVVDFPMADLLLILGTSLEVEPFASLTEAVRSSVPRLLINRDLVGPLAWHPRSRDVAQLGDVVHGVESLVELLGWTEEMRDLVQRETGKLDGPDK
B3: the “in vitro Tat deacetylation” value is “resulted in deacetylation of Tat lysine 50”.
